# Assay results reported in patent publication US20250026849A1 (ARCELLX, published 2025).
# T1: extracellular domain of human CS1 protein (human, UniProt Q9NQ25 23-226)
# T1 construct: Panning target; also called CS1 mature ECD
# T1 sequence: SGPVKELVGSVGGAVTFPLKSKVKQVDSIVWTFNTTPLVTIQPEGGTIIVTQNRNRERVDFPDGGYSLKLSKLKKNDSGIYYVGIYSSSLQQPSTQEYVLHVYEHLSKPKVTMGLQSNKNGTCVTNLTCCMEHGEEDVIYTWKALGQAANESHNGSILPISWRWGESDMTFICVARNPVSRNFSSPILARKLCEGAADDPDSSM
# B1: cc08 CS1 ADBD (SEQ ID NO: 787) (designed binder)
# chain: MGSWVEFNERLHAIYLRLDALGGSEAELAAFEKEIAAFESELQAYKGKGNPEVETLRRHAAGIRWQLQAYRHN
# B2: cc09 CS1 ADBD (SEQ ID NO: 788) (designed binder)
# chain: MGSWNEFKLELAFIKDWLEALGGSEAELANFEEAIAEFEAGLQGYKGKGNPEVEALRKEAAAIRDELQAYRHN
# B3: eb03 HER2 ADBD (SEQ ID NO: 804) (designed binder)
# chain: MGSWAEFRWRLHAIWLQLGALGGSEAELAAFEKEIAAFESELQAYKGKGNPEVEWLRQDAAQIKYILQAYRHN
# B4: cc12 CS1 ADBD (SEQ ID NO: 791) (designed binder)
# chain: MGSWHHFKMHLAGIKLQLEALGGSEAELAEFEEWIADFEGALQDYKGKGNPEVEALRKEAAAIRDELQAYRHN
# B5: D domain SEQ ID NO: 800 (designed binder)
# chain: MGSWHEFRWRLFAIWQRLHALGGSEAELAAFEKEIAAFESELQAYKGKGNPEVEWLRLDAALIRVMLQAYRHN
# Key:
# [1] = target: T1, extracellular domain of human CS1 …; test: phage display panning
# [2] = target: T2, extracellular domain of human HER2 protein (human, UniProt P04626 23-652); test: phage display panning
# T2 construct: Panning target; also called HER2 mature ECD; HER2 (ERBB2, CD340)
# [3] = target: T3, HER2 (human, UniProt P04626 23-652); test: ELISA, format not described; parameters: unit not given here
# T3 construct: also called ERBB2; CD340
binding result [1],further results,Binder
binds,–,B1
binds,–,B2
–,binding result [2]: binds,B3
binds,–,B4
–,ELISA_avg [3]: 10,B5
